In patent US20040219558, “Novel compositions with polymerase activity” (MJ Bioworks Incorporated, published 2004):

Biological target: T1, Pfu DNA polymerase (Pyrococcus furiosus, UniProt P61875 SEQ:1-775)
T1 sequence: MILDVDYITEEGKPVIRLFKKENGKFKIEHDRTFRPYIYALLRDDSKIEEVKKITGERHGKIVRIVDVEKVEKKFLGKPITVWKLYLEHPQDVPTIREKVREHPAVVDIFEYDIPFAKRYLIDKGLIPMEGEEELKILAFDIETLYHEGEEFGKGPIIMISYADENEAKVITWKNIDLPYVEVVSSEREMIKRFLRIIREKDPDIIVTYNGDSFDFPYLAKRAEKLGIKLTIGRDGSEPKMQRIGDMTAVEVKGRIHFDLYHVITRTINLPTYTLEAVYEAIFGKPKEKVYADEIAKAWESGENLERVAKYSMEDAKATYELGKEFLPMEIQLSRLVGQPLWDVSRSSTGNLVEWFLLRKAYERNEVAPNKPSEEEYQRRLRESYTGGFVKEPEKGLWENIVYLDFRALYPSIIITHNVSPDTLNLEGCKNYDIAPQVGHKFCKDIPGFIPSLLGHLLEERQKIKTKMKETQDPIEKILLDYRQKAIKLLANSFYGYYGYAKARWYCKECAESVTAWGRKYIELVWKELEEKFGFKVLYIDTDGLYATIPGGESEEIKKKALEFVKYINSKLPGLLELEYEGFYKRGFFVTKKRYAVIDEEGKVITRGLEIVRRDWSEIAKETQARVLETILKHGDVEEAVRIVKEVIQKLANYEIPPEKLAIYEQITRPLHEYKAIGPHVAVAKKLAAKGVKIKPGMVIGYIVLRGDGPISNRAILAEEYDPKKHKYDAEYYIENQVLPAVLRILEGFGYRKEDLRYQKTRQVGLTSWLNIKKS
Assay: 3'-5' exonuclease fluorescence assay, 65 C; high exonuclease activity
Details: tags: Stratagene (commercial); label: 5'-FAM, 3'-dabcyl; hairpin, 16 bp stem with 3' T:T* mismatch and 5' unpaired poly-T
Method: The oligonucleotide was combined with buffer and the enzyme and incubated in a real time detection instrument, the DNA Engine Opticon System (MJ Research, Inc.). This instrument excites the FAM and detects any fluorescence if present. In the absence of 3′ to 5′ exonuclease activity, there is only background fluorescence because FAM is quenched by DAB. However if the enzyme does have 3′ to 5′ exonuclease activity, the T:T* mismatch is recognized and the 3′-T* is removed. The DAB is released and will no longer quench the FAM fluorescence. The Opticon System will detect the increase in fluorescence with increasing time (readings were taken every 10 sec at 65° C.). The rate of fluorescence increase directly reflects the amount of 3′ to 5′ exonuclease activity. […] The results (FIG. 3) of this analysis are discussed below.

B1: FAM/dabcyl hairpin exonuclease substrate (structured_DNA)
DNA: TTTTTTGAGGTGTGTCCTACACAGCGGAGTGTAGGACACACCTCT
modifications: 3' terminal T is amino-link dT carrying dabcyl
- binding result: binds
